In paper PMC3225930:

Assays:
trypsin [1] = assay: enzyme inhibition kinetics (reciprocal plots); trypsin with substrate H-D-Phe-Pip-Arg-pNA (S-2238, 0-2 mM), 50 mM Tris-HCl pH 7.8, 25 °C; Spi1C pre-incubated with the enzyme for 15 min; pNA read at 405 nm; Spi1C at 0, 22.7, 45.4 and 68.1 nmol/L in the Lineweaver-Burk plots
α-chymotrypsin [2] = assay: enzyme inhibition kinetics (reciprocal plots); α-chymotrypsin with substrate N-benzoyl-tyrosine ethyl ester (BTEE, 0-2 mM), 50 mM Tris-HCl pH 7.8, 25 °C; read at 253 nm; Spi1C at 0, 22.7, 45.4 and 68.1 nmol/L in the Lineweaver-Burk plots
trypsin [3] = target: trypsin
α-chymotrypsin [4] = target: α-chymotrypsin

Substance: recombinant Spi1C protein (natural protein)
- Ki (trypsin [1]): 15.2 nM
- Ki (α-chymotrypsin [2]): 17.9 nM
- specific inhibitor activity (inhibition of trypsin activity) (trypsin [3]): 6940 U/mg
- specific inhibitor activity (inhibition of α-chymotrypsin activity) (α-chymotrypsin [4]): 3640 U/mg
